From paper doi:10.1101/2023.11.26.568713v1

B1: BhcA (Paracoccus denitrificans PD1222) (protein)
chain: MTSQNPIFIPGPTNIPEEMRKAVDMPTIDHRSPVFGRMLHPALEGVKKVLKTTQAQVFLFPSTGTGGWETAITNTLSPGDKVLAARNGMFSHRWIDMCQRHGLDVTFVETPWGEGVPADRFEEILTADKGHEIRVVLATHNETATGVKSDIAAVRRALDAAKHPALLFVDGVSSIGSMDFRMDEWGVDIAVTGSQKGFMLPPGLAIVGFSPKAMEAVETARLPRTFFDIRDMATGYARNGYPYTPPVGLINGLNASCERILAEGLENVFARHHRIASGVRAAVDAWGLKLCAVRPELYSDSVSAIRVPEGFDANLIVSHALETYDMAFGTGLGQVAGKVFRIGHLGSLTDAMALSGIATAEMVMADLGLPIQLGSGVAAAQEHYRQTTAAAQKKAA
B2: GGT1 (Arabidopsis thaliana) (protein)
chain: MALKALDYDTLNENVKKCQYAVRGELYLRASELQKEGKKIIFTNVGNPHALGQKPLTFPRQVVALCQAPFLLDDPNVGMLFPADAIARAKHYLSLTSGGLGAYSDSRGLPGVRKEVAEFIQRRDGYPSDPELIFLTDGASKGVMQILNCVIRGNGDGILVPVPQYPLYSATISLLGGTLVPYYLDESENWGLDVANLRQSVAQARSQGITVRAMVIINPGNPTGQCLSEANIREILKFCYNEKLVLLGDEVYQQNIYQDERPFISSKKVLMEMGSPFSKEVQLVSFHTVSKGYWGECGQRGGYFEMTNLPPRVVEEIYKVASIALSPNVSAQIFMGLMVNPPKPGDISYDQFARESKGILESLRRRARLMTDGFNSCKNVVCNFTEGAMYSFPQIRLPTGALQAAKQAGKVPDVFYCLKLLEATGISTVPGSGFGQKEGVFHLRTTILPAEDEMPEIMDSFKKFNDEFMTQYDNNFGYSKM

Key:
[1] = substrate: O=CC(=O)O; test: purified protein, by the assay type; conditions: pH 7.6; 30.0 °C
[2] = substrate: O=CC(=O)O; test: purified protein, by the assay type; conditions: pH 7.6; 30.0 °C; remark: listed apart in the source

Protein | Km [1] [µM] | Km [2] [µM]
B1 | 190 ± 20 | 140 ± 20
B2 | – | 330 ± 30
